In patent US20220242943A1:

Columns and labels:
[1] = molecular target: human PDGF-AB (human) (UniProt P04085); experiment: cell-based or functional assay
[2] = molecular target: human PDGF-BB (human) (UniProt P01127); experiment: cell-based or functional assay
[3] = molecular target: human PDGF-BB (human) (UniProt P01127); experiment: SPR 25C, mAb captured on anti-hFc; analyte Human PDGF-BB homodimer (R&D)
[4] = molecular target: Cynomolgus monkey PDGF-BB (cynomolgus monkey (Macaca fascicularis)); experiment: SPR 25C, mAb captured on anti-hFc; analyte Monkey PDGF-BB homodimer (Kingfisher)
[5] = molecular target: human PDGF-BB (human) (UniProt P01127); experiment: blocking ELISA: 60 pM Biot-PDGF-BB on 1 ug/ml hPDGFRb-mmH; IC50 cell NB (Non-Blocker)
[6] = molecular target: human PDGF-AB (human) (UniProt P04085); experiment: blocking ELISA: 100 pM Biot-PDGF-AB on 1 ug/ml hPDGFRb-mmH; IC50 cell NB (Non-Blocker)
[7] = molecular target: human PDGFRβ on HEK293/SRE-luc/hPDGFRβ cells (human) (UniProt P09619); experiment: cell-based or functional assay
Sequence of human PDGFRβ on HEK293/SRE-luc/hPDGFRβ cells (human) (P09619 33-1106): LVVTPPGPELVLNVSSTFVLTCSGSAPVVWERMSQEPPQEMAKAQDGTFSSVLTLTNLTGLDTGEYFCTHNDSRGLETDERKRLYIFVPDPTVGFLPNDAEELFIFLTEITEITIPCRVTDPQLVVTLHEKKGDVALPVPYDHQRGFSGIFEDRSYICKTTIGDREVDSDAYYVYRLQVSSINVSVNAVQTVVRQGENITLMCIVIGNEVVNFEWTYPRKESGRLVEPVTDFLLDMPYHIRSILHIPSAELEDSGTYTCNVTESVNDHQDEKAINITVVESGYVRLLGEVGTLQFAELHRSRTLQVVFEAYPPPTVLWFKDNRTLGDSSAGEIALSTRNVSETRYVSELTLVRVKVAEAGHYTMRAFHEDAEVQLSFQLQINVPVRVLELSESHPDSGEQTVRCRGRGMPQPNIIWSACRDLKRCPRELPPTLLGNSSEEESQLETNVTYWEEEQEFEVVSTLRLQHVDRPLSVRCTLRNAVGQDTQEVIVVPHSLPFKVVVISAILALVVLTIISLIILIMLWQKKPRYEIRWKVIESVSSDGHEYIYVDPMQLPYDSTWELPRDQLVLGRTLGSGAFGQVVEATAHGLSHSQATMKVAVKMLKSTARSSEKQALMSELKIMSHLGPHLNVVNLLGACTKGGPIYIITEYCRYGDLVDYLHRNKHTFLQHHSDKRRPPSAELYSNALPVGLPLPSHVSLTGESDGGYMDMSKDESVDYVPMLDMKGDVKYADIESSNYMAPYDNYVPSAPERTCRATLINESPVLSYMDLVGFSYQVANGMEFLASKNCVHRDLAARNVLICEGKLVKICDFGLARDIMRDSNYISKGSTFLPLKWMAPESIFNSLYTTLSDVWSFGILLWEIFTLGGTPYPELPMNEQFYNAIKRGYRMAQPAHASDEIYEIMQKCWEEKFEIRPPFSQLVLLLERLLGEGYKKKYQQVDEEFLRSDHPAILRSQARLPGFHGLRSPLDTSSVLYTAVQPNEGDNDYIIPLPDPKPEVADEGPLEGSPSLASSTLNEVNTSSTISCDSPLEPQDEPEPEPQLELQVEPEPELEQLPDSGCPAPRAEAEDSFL

Sequence of Cynomolgus monkey PDGF-BB (cynomolgus monkey (Macaca fascicularis)) (chain, as listed by the source): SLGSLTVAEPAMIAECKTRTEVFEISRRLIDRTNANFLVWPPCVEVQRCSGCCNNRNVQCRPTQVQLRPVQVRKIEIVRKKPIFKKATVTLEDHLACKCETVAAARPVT

With REGN1945 (antibody) the A647 Intensity, internalization in NHLF, pre-blocking Ab: NA [1] was 624000, the A647 Intensity, internalization in PASMC, pre-blocking Ab: NA [1] was 464000 and the Fold Change vs REGN1945, internalization in NHLF, pre-blocking Ab: NA [1] was 1 fold. For the same substance, the Fold Change vs REGN1945, internalization in PASMC, pre-blocking Ab: NA [1] was 1 fold, the A647 Intensity, internalization in NHLF, pre-blocking Ab: NA [2] was 573000 and the A647 Intensity, internalization in PASMC, pre-blocking Ab: NA [2] was 483000. It also gave an EC50 of subsequent PDGF-BB calcium flux in PASMC after 3 hr pre-treatment with antibody-PDGFBB (10:1 nM) [2] of 0.6 nM, a Fold Change vs REGN1945, internalization in NHLF, pre-blocking Ab: NA [2] of 1 fold and a Fold Change vs REGN1945, internalization in PASMC, pre-blocking Ab: NA [2] of 1 fold. The Max-Min at 5 nM PDGF-BB (RFU), PASMC after 3 hr pre-treatment with antibody-PDGFBB [2] was 3950 RFU, the Max-Min at 5 nM PDGF-BB (RFU), PASMC after 24 hr pre-treatment with antibody-PDGFBB [2] was 1460 RFU and the Max-Min at 5 nM PDGF-BB (RFU), PASMC after 48 h pre-treatment with antibody-PDGFBB [2] was 492 RFU. It also gave a 30nM hPDGF-BB (R&D) Bound (RU) [3] of 6.7 RU, a 30nM mfPDGF-BB (KingFisher) Bound (RU) [4] of 6.8 RU and a % blocking at 100 nM Ab [5] of -6%. The % blocking at 100 nM Ab [6] was 21%.

In the case of “human PDGF-AB (from UniProt P04085 87-211) (ligand)”, the EC50 of ligand, SRE-luciferase in HEK293/SRE-luc/hPDGFRβ cells [7] was 8.6 nM.

With isotype - mIgG (REGN 751) (antibody) the % blocking at 100 nM Ab [5] was -5% and the % blocking at 100 nM Ab [6] was 18%.
